# Measured values taken from publication PMC3074162.
# Read-outs that look alike come from different tables or passages of the source.
# T1: ParB 65-139 (RHH domain) (Leifsonia xyli subsp. cynodontis …, UniProt Q6EEF9 65-139)
# T1 sequence: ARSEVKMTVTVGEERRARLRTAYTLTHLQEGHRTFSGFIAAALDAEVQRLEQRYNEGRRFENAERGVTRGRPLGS
# B1: R2R3-27 (dsDNA)
# DNA 1: AGTAAAGTAGGAATAGGTGGAAAAGCC
# DNA 2: GGCTTTTCCACCTATTCCTACTTTACT
# B2: R2R3-18 (dsDNA)
# DNA 1: AGTAGGAATAGGTGGAAA
# DNA 2: TTTCCACCTATTCCTACT
# Assays:
# ParB 65-139 (RHH domain) [1] = target: T1, ParB 65-139 (RHH domain); assay: EMSA
# ParB 65-139 (RHH domain) [2] = target: T1, ParB 65-139 (RHH domain); assay: EMSA; remark: listed apart in the source
Binder,binding result (ParB 65-139 (RHH domain) [1]),binding result (ParB 65-139 (RHH domain) [2])
B1,binds,–
B2,–,binds
